The nature of the data set: protein stability index of a GFP-peptide fusion (GPS, HEK-293T) (PSI 1-6); higher = more stable.
The mark [1] stands for this setting: treatment: DMSO, c terminus: a fixed tail appended.
Setting [2] is: treatment: MLN4924 1 uM, 8 h, c terminus: a fixed tail appended.
Where [3] appears, read: treatment: DMSO, c terminus: native.
[4] abbreviates: treatment: MLN4924 1 uM, 8 h, c terminus: native.

± gives the standard deviation.
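Also: 24-mer peptide tiles fused after GFP, lentivirally expressed, FACS-sorted into six equal bins by GFP/DsRed ratio, decoded by Illumina sequencing, PSI is the read-weighted mean bin number.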

Consider GPPSRGGHMDDGGYSMNFNMSSSR [RBMX], for which the protein stability index runs as follows: under setting [1], 4.25 ± 0.32; under setting [2], 3.96 ± 0.34.

Turning to VAEETPDGAPALCPSPEALSPEPP [PRKX], the protein stability index was found to be 5.48 ± 0.21 under setting [1] and 5.41 ± 0.31 under setting [2].

Consider PFTVSPNTHVSQVFNLFRTMGLRH [CLCN6], for which the protein stability index was 2.39 ± 0.45 under setting [1] and 2.45 ± 0.38 under setting [2].

For MTLLPGDNSDYDYSALSCTSDASF [KCNG1], the protein stability index under setting [1] is 3.79 ± 0.27 and the protein stability index under setting [2] was determined as 3.87 ± 0.24.

With LARGPLNQTALHLAAAHGHSEVVE [RIPK4], the protein stability index amounted to 4.36 ± 0.18 under setting [1] and 4.55 ± 0.19 under setting [2].

For the sequence LSPKKTWEGFIGGFFSTVVFGFIA [CDS1], the protein stability index runs as follows: under setting [1], 2.28 ± 0.47; under setting [2], 2.15 ± 0.63.

Regarding QIENLNIQVEDIRIRAILSTYRKR [LOXL2], the protein stability index by setting is: under setting [1], 2.67 ± 0.28; under setting [2], 2.85 ± 0.37.

Turning to PSTLGRCKAFSTCVSHLIIVTVHY [OR10K2], the protein stability index is 3.07 ± 0.41 under setting [1] and 2.89 ± 0.5 under setting [2].

Take DNPLDRPLVGQDEFFLEQTKKKGV [NOP53]: the protein stability index runs as follows: under setting [1], 5.25 ± 0.3; under setting [2], 5.37 ± 0.22.

In the case of LGPVPREDQAEAWGCSCCPPETKH [TSPAN10], the protein stability index under setting [1] was determined as 4.91 ± 0.083 and the protein stability index under setting [2] is 4.97 ± 0.32.

On to EVENQFILRLPLEHACTVRNLARS [TAF7L], for which the protein stability index is, setting by setting: under setting [1], 2.66 ± 0.12; under setting [2], 2.51 ± 0.24.

For the sequence ICQGIRGLWGTTLTENTAENRELY [PKD2L1], the protein stability index runs as follows: under setting [1], 3.03 ± 0.19; under setting [2], 3.37 ± 0.21.

On to GHKEEEDGEGAGPGEQGGGKLVLS [ESRRA], for which the protein stability index under setting [1] worked out at 5.3 ± 0.27 and the protein stability index under setting [2] is 5.42 ± 0.4.

Regarding YNDGVINLLEKFFEMKKGQCKDAL [SNAP91], the protein stability index is, setting by setting: under setting [1], 2.31 ± 0.3; under setting [2], 2.34 ± 0.2.

On to RSFVEKHRWPSNMYLKQLAEYRKY [RHOBTB3], for which the protein stability index under setting [1] stood at 2.38 ± 0.24 and the protein stability index under setting [2] was determined as 2.62 ± 0.74.

Take RETLKRKVSGNRCASPVTGPGSKR [ESR2]: the protein stability index is, setting by setting: under setting [1], 3.92 ± 0.32; under setting [2], 4.1 ± 0.2.

Consider LRTYLARLPWAGQLTKELPLSPAF [PBXIP1], for which the protein stability index under setting [1] was found to be 2.22 ± 0.64 and the protein stability index under setting [2] was 2.16 ± 0.22.

As for LNQKTSEKMKKRKMSNSFHGIRPP [RHOBTB3], the protein stability index worked out at 3.95 ± 0.34 under setting [1] and 4.23 ± 0.11 under setting [2].

For the sequence ACGIEHCSVHYVSDSGDGVYAGRP [FBXO34], the protein stability index reads like this: under setting [1], 2.25 ± 0.29; under setting [2], 2.84 ± 1.1.

Take PRSCSSGPAGPYLLSKKGALQSRA [PLEKHN1]: the protein stability index under setting [1] worked out at 3.96 ± 0.52 and the protein stability index under setting [2] came to 4.29 ± 0.39.

Take KYGDIPRGIFVVRGENVVLLGEID [LSM1]: the protein stability index under setting [1] was 2.27 ± 0.093 and the protein stability index under setting [2] is 2.4 ± 0.32.

Regarding GTGTGPEDGRPSLGSPYGQPPRFP [PDLIM4], the protein stability index under setting [1] turned out to be 4.37 ± 0.21 and the protein stability index under setting [2] was 4.53 ± 0.22.

MQRGARLPAEVAGLSQVLLRGGGQ [POMT2] came in with a protein stability index under setting [1] of 3.6 ± 0.27 and a protein stability index under setting [2] of 3.64 ± 0.21.

As to QWLRPHVSTKEQILDLLVLEQFLS [ZSCAN9], the protein stability index was 2.07 ± 0.5 under setting [1] and 2.22 ± 0.44 under setting [2].

Turning to FGRYLEHLEVKFMNPYNAVLTKKF [FBXO39], the protein stability index stood at 2.24 ± 0.45 under setting [1] and 2.04 ± 0.16 under setting [2].

With STETLVHVSDEDNNADLCLTDDKQ [DLC1], the protein stability index is, setting by setting: under setting [1], 5.59 ± 0.36; under setting [2], 5.59 ± 0.38.

In turn, LIVHIALPSWADICTNLCEALQNF [M1AP] had a protein stability index under setting [1] of 3.02 ± 0.56 and a protein stability index under setting [2] of 3.09 ± 0.24.

For the sequence TWVTVKNGSGDMIFEGNSEKEIPV [CPXM2], the protein stability index by setting is: under setting [1], 4 ± 0.2; under setting [2], 3.9 ± 0.081.

For LFEAGDATLASDLQDWASVGAFL [FOXJ1], the protein stability index is, setting by setting: under setting [3], 3.59 ± 0.15; under setting [4], 3.49 ± 0.34.

For HRNLSQLPNFAFSVPLAYFLLSQQ [TCF25], the protein stability index under setting [1] was determined as 2.26 ± 0.56 and the protein stability index under setting [2] stood at 2.65 ± 0.26.

In the case of FKNRLVNIMPYESTRVCLQPIRGV [PTPRD], the protein stability index runs as follows: under setting [1], 2.35 ± 0.35; under setting [2], 2.33 ± 0.47.

As for SWSDNERSSSRINIPERASGPEGN [FAM104B], the protein stability index is, setting by setting: under setting [1], 4.79 ± 0.11; under setting [2], 4.73 ± 0.32.

For the sequence QSLTQRLHALKLRSPDASPSRAPP [GNAS], the protein stability index by setting is: under setting [1], 4.06 ± 0.17; under setting [2], 4.14 ± 0.22.

MALLRKINQVLLFLLIVTLCVILY [GLT8D2]: the protein stability index was found to be 2.12 ± 0.27 under setting [1] and 2.11 ± 0.18 under setting [2].

On to NAIPGRTDIELEIYGMEGIPEKDM [ZNF207], for which the protein stability index by setting is: under setting [1], 4.23 ± 0.35; under setting [2], 4.37 ± 0.29.

Consider QNGEEGTSTPEDKESGQEGVDSMA [SMARCE1], for which the protein stability index was 5.44 ± 0.17 under setting [1] and 5.65 ± 0.29 under setting [2].

For the sequence QSIIAIIRAMGRLKIDFGDSARAD [GNAI1], the protein stability index amounted to 2.44 ± 0.53 under setting [1] and 2.29 ± 0.93 under setting [2].

As for AEKNCMTFFEVSPLCNFNVIESFT [RAB40C], the protein stability index under setting [1] is 2.3 ± 0.64 and the protein stability index under setting [2] is 2.02 ± 0.24.

As to PQESAILQLFHQDGTFSPVTLALF [CLCN6], the protein stability index runs as follows: under setting [1], 2.45 ± 0.46; under setting [2], 2.42 ± 0.32.

Consider VAFLEQRASALLASCSKNCTNSPA [FBXO34], for which the protein stability index is, setting by setting: under setting [1], 2.9 ± 0.25; under setting [2], 2.76 ± 0.28.

The sequence LDQLDESLRDKVLQLQKGSDTEAQ [INTS3] came in with a protein stability index under setting [1] of 5.46 ± 0.12 and a protein stability index under setting [2] of 5.31 ± 0.21.

LQQIADFMTTNVPNVYPAAPQGGM [ADD1]: the protein stability index was 3.3 ± 0.2 under setting [1] and 3.29 ± 0.17 under setting [2].

Regarding FPKKLAFAYLEDLHSEFDEQHGKK [SEC22B], the protein stability index under setting [1] is 2.89 ± 0.28 and the protein stability index under setting [2] stood at 3.26 ± 0.38.

Take SPSFQLKAAALPPFPLGASAQNGL [PLAGL1]: the protein stability index was 3.41 ± 0.32 under setting [1] and 3.52 ± 0.4 under setting [2].

Take YYERVLKRKTFNKVLGHVNNILIS [GDAP1]: the protein stability index came out at 2.35 ± 0.35 under setting [1] and 2.64 ± 0.7 under setting [2].

HRTVKLVPWSQCLQNFLLHGTKNV [WSB1]: the protein stability index is 2.19 ± 0.17 under setting [1] and 1.99 ± 0.21 under setting [2].

With MLPTVITDIKDESCCMTEEIFGPV [ALDH8A1], the protein stability index under setting [1] worked out at 3.83 ± 0.2 and the protein stability index under setting [2] amounted to 3.81 ± 0.13.

In the case of QALGTHRPVNKLAELQCEVAALRE [RASAL3], the protein stability index came out at 3.81 ± 0.38 under setting [1] and 3.75 ± 0.41 under setting [2].

In the case of KEMEQLFSQYGRIITSRILVDQVT [ELAVL3], the protein stability index runs as follows: under setting [1], 2.94 ± 0.24; under setting [2], 3.41 ± 0.58.

For the sequence DPLANGCQGVSEAAHRLARRLYHL [PSD2], the protein stability index stood at 3.24 ± 0.18 under setting [1] and 3.52 ± 0.059 under setting [2].

In turn, ALILHQRIHSGEKPYGCVECGKAF [ZNF24] returned a protein stability index under setting [1] of 2.17 ± 0.052 and a protein stability index under setting [2] of 2.5 ± 0.4.

VSSNNRLVVTGSGEHASVYQITY [TLE6]: the protein stability index came to 2.7 ± 0.26 under setting [3] and 2.68 ± 0.23 under setting [4].

Take VAVLLLFLVVREPPRGAVERHSDL [SPNS1]: the protein stability index reads like this: under setting [1], 3.02 ± 0.64; under setting [2], 2.99 ± 0.53.

In the case of EEGSANRRPEDQELESLSAIEAEL [CHGA], the protein stability index was 5.59 ± 0.14 under setting [1] and 5.45 ± 0.095 under setting [2].

In the case of RTVKLIRYVSNWDFFIVGCEVIFC [PKD2L1], the protein stability index runs as follows: under setting [1], 2.79 ± 0.56; under setting [2], 2.58 ± 0.47.

For AQPNTMLGRMFGSGREHNFTRPNE [BTBD10], the protein stability index reads like this: under setting [1], 3.74 ± 0.53; under setting [2], 3.61 ± 0.39.

In the case of DLIDVDLIRGSTFAKAKPEIPWTS [PHTF1], the protein stability index under setting [1] came to 2.25 ± 0.17 and the protein stability index under setting [2] stood at 2.46 ± 0.22.

Consider RHTSPVFSPANPESSMEDCLAHLG [BCL2L13], for which the protein stability index is, setting by setting: under setting [1], 4.24 ± 0.069; under setting [2], 4.31 ± 0.29.

Regarding SQFLKHQQTHNIEKAHECTDCGKA [ZNF649], the protein stability index worked out at 4.88 ± 0.26 under setting [1] and 4.985 ± 0.041 under setting [2].

Turning to EDLKGHVAETSGETIQGFWLLTKI [TPRG1], the protein stability index runs as follows: under setting [1], 2.37 ± 0.59; under setting [2], 2.07 ± 0.3.

As to KRLYDKAAKMYHQLKKCETRKLSP [SMG5], the protein stability index turned out to be 2.28 ± 0.18 under setting [1] and 2.38 ± 0.39 under setting [2].

NNPFAKGFRGSDDMELHRMSRMQS [TBX5] displayed a protein stability index under setting [1] of 4.15 ± 0.33 and a protein stability index under setting [2] of 4.06 ± 0.22.

For the sequence GEEDFSLSATIGSILRELDTSMDG [SERTAD3], the protein stability index is 3.75 ± 0.2 under setting [1] and 3.93 ± 0.44 under setting [2].

VAITILQDDHDHKVQELMSTHELE [MTUS2]: the protein stability index runs as follows: under setting [1], 3.3 ± 0.3; under setting [2], 3.43 ± 0.23.

For EHYWEVRYEPDSKAFGVGVAYRSL [FSD1], the protein stability index by setting is: under setting [1], 2.06 ± 0.29; under setting [2], 2.25 ± 0.33.

Consider TEQSSASRLMRRHKRRRRKQKVSR [DVL3], for which the protein stability index by setting is: under setting [1], 5.13 ± 0.24; under setting [2], 5.16 ± 0.22.

For PVVGSTRRLYEKKIFEYETQRRRL [EMD], the protein stability index was found to be 3.16 ± 0.25 under setting [1] and 3.18 ± 0.06 under setting [2].

The sequence LNLTEGFAVLHWKPPQNPVDTYDV [TNXB] had a protein stability index under setting [1] of 2.5 ± 0.66 and a protein stability index under setting [2] of 2.69 ± 0.45.

GTLVQLLGSDDINVVTCAAGILSN [CTNNB1]: the protein stability index runs as follows: under setting [1], 2.32 ± 0.52; under setting [2], 2.28 ± 0.12.

Consider NIHMNFTHICRSHNSINQSLDESV [SLC2A12], for which the protein stability index is, setting by setting: under setting [1], 2.56 ± 0.25; under setting [2], 2.54 ± 0.23.

Sequence NDIFQAANPYWTSRGSSVSMSGGR [TRIM63] yielded a protein stability index under setting [1] of 3.76 ± 0.34 and a protein stability index under setting [2] of 3.63 ± 0.062.

As to CRKAKEIRKERKRLKLMQQNPAGE [ATE1], the protein stability index runs as follows: under setting [1], 4 ± 0.25; under setting [2], 4.37 ± 0.2.
